Consider one molecule from US20140271639A1, “Semaphorin 7a Induced Lung Fibrogenesis Occurs in a CD-4-Dependent, Macrophage Dependent Manner” (YALE UNIVERSITY, priority 2011, published 2014).

The assay has as its system CD14+ monocytes. The assay can be described thus: Sema 7a stimulation of CD14+ monocytes; CD206 expression via flow cytometry. It is filed as cell-based, human. On the procedure:
Antibodies against mouse F4/80, CD11b, and CD11c, and against human CD4, CD8, and CD14 were purchased from BD Pharmingen. CD206 antibody was purchased from Serotec. Semaphorin 7a antibody was obtained from R & D Systems. Appropriate isotype controls were obtained from BD Pharmingen. Flow cytometry and cell sorting were performed using a BD FACSCalibur. Data were analyzed using Flow Jo v 7.5 software (Tree Star, Inc, Ashland, Oreg.). For all analyses, isotype control staining was subtracted from true antibody staining to determine the percentage of positive cells. When necessary this percentage was then multiplied by the total cell count in the sample to derive absolute quantity of the cell population of interest.
Ficoll separation and processing of PBMCs for FACS was performed as we have previously described (Gan et al., 2011, Arthritis Rgeum. 63:2484-2494).
CD14+ monocytes were obtained via MACS-enrichment as have been previously described. These cells were stimulated with recombinant Sema 7a (Abnova, Taiwan) or human serum albumin (Sigma) as previously described (Gan et al., 2011, Arthritis Rgeum. 63:2484-2494). Lentivirally-mediated shRNA knockdown of Plexin C1 expression was performed using specific anti-Plexin shRNA or control “scramble” shRNA (Santa Cruz Biotech, Santa Cruz […].) as previously described (Gan et al., 2011, Arthritis Rgeum. 63:2484-2494).
For orientation: A flow cytometer gives signals particle by particle.

B1: recombinant Sema 7a protein: recombinant Sema 7a (Abnova, Taiwan) used to stimulate CD14+ monocytes (protein, UniProt O75326 45-648, looked up)
Semaphorin-7A: QGHLRSGPRIFAVWKGHVGQDRVDFGQTEPHTVLFHEPGSSSVWVGGRGKVYLFDFPEGKNASVRTVNIGSTKGSCLDKRDCENYITLLERRSEGLLACGTNARHPSCWNLVNGTVVPLGEMRGYAPFSPDENSLVLFEGDEVYSTIRKQEYNGKIPRFRRIRGESELYTSDTVMQNPQFIKATIVHQDQAYDDKIYYFFREDNPDKNPEAPLNVSRVAQLCRGDQGGESSLSVSKWNTFLKAMLVCSDAATNKNFNRLQDVFLLPDPSGQWRDTRVYGVFSNPWNYSAVCVYSLGDIDKVFRTSSLKGYHSSLPNPRPGKCLPDQQPIPTETFQVADRHPEVAQRVEPMGPLKTPLFHSKYHYQKVAVHRMQASHGETFHVLYLTTDRGTIHKVVEPGEQEHSFAFNIMEIQPFRRAAAIQTMSLDAERRKLYVSSQWEVSQVPLDLCEVYGGGCHGCLMSRDPYCGWDQGRCISIYSSERSVLQSINPAEPHKECPNPKPDKAPLQKVSLAPNSRYYLSCPMESRHATYSWRHKENVEQSCEPGHQSPNCILFIENLTAQQYGHYFCEAQEGSYFREAQHWQLLPEDGIMAEHLLGHACALA
As to B1, the “response to Sema 7a stimulation (cell surface expression of CD206)” value (IPF monocytes, p=0.16, FIGS. 6A and 6B) is on record as “failed to respond”. In addition, the “increase in cell surface expression of CD206” value (normal human monocytes, p=0.04, FIGS. 6A and 6B) is on record as 94.3%.
